In US20150291681A1 (published 2015):

What was measured:
[1] = target: T1, EGFP labeled Notch (Drosophila Notch stably expressed on S2 cells) (Drosophila, UniProt P07207 53-2703); test: S2 cell aggregation; Sertom DNA transfected into Notch-EGFP cells (cis), competitor of Sertom cells (trans)
T1 construct: whole, on cells; how EGFP is joined to Notch is not described; also called Notch+EGFP; N+EGFP; not shown: EGFP label
Method: Stable lines of EGFP-labeled Notch cells were added to stable lines of tomato tagged Ser-expressing cells, allowed to mix for 24 hours at room temperature and were assayed for the formation of interacting cellular aggregates (Fehon et al., 1990, Cell 3:523-534). The Notch expressing cells were transiently transfected with tomato-tagged Ser DNA at concentrations ranging between 0.0 μg and 2.0 μg prior to mixing with Ser expressing cells to induce cis-inhibition by co-expressed Ser with Notch. When performed with wild type Ser DNA (A of this figure), effective inhibition of aggregation occurs in a dose dependent manner when the Ser expressing cells (Ser labeled columns) are mixed with the transfected Notch cells. When Ser expressing cells are not mixed with the transfected Notch cells (S2R+), self-aggregate formation is minimal.
S2 cells stably expressing tomato-tagged Ser (Sertom) were mixed with S2 cells stably expressing EGFP labeled Notch and allowed to aggregate with one another to determine baseline levels of Notch-Ser interactions (FIG. 6). Subsequent experiments transiently transfected the stable Notch EGFP line with either Sertom (wild type), SerDel6tom or SerDel3tom transgenes at varying concentrations to promote cis-inhibition within the Notch-expressing cells. […]

[2] = target: T2, endogenous Drosophila Notch (wing imaginal disc) (Drosophila, UniProt P07207 53-2703); test: summing-up sentence; inferred from trans-activation in wing discs and aggregation assays
T2 construct: whole, on cells; also called Notch receptor
T2 sequence (P07207 53-2703): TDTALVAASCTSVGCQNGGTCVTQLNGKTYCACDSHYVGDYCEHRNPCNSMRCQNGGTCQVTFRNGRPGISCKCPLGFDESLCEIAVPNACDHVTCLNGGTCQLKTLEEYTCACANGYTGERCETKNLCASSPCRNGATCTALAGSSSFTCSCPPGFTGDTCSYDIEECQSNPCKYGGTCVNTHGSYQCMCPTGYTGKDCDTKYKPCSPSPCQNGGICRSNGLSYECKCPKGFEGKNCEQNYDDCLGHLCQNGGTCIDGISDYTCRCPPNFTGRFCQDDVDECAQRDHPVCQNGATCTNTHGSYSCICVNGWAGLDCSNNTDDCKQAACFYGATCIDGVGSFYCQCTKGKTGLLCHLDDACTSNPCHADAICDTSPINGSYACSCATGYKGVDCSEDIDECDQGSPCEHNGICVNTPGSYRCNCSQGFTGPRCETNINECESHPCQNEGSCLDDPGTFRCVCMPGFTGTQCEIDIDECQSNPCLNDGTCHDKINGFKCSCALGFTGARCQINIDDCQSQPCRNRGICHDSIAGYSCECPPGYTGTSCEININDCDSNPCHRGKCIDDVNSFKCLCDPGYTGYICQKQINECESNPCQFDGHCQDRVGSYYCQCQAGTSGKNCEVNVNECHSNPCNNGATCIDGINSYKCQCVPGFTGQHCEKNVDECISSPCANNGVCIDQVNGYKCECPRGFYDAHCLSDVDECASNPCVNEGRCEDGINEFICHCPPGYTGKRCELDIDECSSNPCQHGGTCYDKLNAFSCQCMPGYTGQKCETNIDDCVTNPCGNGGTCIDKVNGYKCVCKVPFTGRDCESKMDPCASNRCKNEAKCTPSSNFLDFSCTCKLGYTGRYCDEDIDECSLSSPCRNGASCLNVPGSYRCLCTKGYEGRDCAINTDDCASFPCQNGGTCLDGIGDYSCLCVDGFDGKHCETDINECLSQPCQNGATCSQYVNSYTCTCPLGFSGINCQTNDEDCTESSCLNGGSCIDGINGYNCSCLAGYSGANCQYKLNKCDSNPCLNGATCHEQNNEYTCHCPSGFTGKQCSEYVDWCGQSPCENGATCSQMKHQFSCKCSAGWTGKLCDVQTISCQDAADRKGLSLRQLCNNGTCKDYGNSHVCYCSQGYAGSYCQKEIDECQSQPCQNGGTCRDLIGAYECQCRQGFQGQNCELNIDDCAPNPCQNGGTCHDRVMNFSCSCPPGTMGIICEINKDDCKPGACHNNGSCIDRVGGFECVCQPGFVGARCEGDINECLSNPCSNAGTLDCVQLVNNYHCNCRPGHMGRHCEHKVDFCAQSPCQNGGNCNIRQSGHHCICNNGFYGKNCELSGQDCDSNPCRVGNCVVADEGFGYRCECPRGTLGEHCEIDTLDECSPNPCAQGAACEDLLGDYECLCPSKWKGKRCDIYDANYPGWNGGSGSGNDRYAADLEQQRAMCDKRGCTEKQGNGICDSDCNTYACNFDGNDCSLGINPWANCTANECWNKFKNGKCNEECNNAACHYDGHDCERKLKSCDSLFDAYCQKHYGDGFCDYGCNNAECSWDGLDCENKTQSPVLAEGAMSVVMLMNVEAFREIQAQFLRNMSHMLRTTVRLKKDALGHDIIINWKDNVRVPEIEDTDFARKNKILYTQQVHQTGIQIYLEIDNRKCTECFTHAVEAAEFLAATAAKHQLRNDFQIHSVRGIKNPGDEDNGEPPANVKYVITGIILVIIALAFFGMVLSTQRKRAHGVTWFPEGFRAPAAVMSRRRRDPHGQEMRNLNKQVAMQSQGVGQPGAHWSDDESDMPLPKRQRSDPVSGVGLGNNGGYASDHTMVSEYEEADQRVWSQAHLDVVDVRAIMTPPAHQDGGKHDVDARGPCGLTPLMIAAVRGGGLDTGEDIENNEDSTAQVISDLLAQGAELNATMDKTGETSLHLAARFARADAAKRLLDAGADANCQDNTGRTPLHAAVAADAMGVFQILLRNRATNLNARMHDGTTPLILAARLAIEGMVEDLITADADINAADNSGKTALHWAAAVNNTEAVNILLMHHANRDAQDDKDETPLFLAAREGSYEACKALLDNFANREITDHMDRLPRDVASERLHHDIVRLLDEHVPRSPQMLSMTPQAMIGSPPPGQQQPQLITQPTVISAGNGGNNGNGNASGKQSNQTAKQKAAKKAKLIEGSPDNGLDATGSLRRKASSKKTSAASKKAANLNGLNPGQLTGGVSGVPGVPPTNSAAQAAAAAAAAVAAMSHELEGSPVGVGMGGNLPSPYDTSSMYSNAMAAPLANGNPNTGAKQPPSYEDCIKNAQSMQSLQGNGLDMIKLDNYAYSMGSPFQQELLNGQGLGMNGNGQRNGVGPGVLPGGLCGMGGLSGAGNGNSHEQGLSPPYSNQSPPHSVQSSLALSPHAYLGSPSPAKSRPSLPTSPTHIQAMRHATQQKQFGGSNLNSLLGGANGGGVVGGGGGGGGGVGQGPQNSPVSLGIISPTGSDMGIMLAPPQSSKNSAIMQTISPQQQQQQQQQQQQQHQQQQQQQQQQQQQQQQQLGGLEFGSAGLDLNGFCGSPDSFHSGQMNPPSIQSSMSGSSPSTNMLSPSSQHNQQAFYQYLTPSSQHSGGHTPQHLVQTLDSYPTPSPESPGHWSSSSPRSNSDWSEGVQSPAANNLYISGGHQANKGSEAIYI
Method: To define potential inhibitory domains in the extracellular domain of the Notch ligands, a systematic deletion analysis of an extracellular region of the Drosophila Notch ligand Ser was performed. Ser has 14 ELRs in its extracellular domain (FIG. 4) and has been the ligand best explored for its inhibitory properties (Klein et al., 1997, Dev. Biol. 1:123-134; Li and Baker, 2004, BMC Dev. Biol. 5). […] Using the Gal4ptc promoter, the influence of ectopic Ser expression on Notch activity was measured by examining how it affects the expression of CUT, a transcriptional target of Notch signals and is a classic indicator of Notch activity in the dorsal/ventral boundary and ventral region of the wing disc (Doherty et al., 1996, Genes Dev. 4:421-434).
Ser constructs were expressed in the third instar imaginal wing disc via the ptc promoter using the Gal4 system (Brand and Perrimon, 1993, Development 2:401-415). Notch activity was assessed by examination of CUT expression induced in response to Notch activity (Neumann and Cohen, 1996, Development 11:3477-3485). […]

T1 sequence (P07207 53-2703): as above

binding result [1]	binding result [2]	Binder
binds		tomato-tagged Ser (Sertom), wild type Drosophila Serrate (ligand, The tomato tag is an internal insertion in the intracellular domain; also called Ser+Tomato; Ser Bsp tom; not shown: fluorescent tomato tag (Shaner et al., 2004), INSERTED within the intracellular domain at the Bsp EI site of the Ser cDN) GNFELEILEISNTNSHLLNGYCCGMPAELRATKTIGCSPCTTAFRLCLKEYQTTEQGASISTGCSFGNATTKILGGSSFVLSDPGVGAIVLPFTFRWTKSFTLILQALDMYNTSYPDAERLIEETSYSGVILPSPEWKTLDHIGRNARITYRVRVQCAVTYYNTTCTTFCRPRDDQFGHYACGSEGQKLCLNGWQGVNCEEAICKAGCDPVHGKCDRPGECECRPGWRGPLCNECMVYPGCKHGSCNGSAWKCVCDTNWGGILCDQDLNFCGTHEPCKHGGTCENTAPDKYRCTCAEGLSGEQCEIVEHPCATRPCRNGGTCTLKTSNRTQAQVYRTSHGRSNMGRPVRRSSSMRSLDHLRPEGQALNGSSSSGLVSLGSLQLQQQLAPDFTCDCAAGWTGPTCEINIDECAGGPCEHGGTCIDLIGGFRCECPPEWHGDVCQVDVNECEAPHSAGIAANALLTTTATAIIGSNLSSTALLAALTSAVASTSLAIGPCINAKECRNQPGSFACICKEGWGGVTCAENLDDCVGQCRNGATCIDLVNDYRCACASGFTGRDCETDIDECATSPCRNGGECVDMVGKFNCICPLGYSGSLCEEAKENCTPSPCLEGHCLNTPEGYYCHCPPDRAGKHCEQLRPLCSQPPCNEGCFANVSLATSATTTTTTTTTATTTRKMAKPSGLPCSGHGSCEMSDVGTFCKCHVGHTGTFCEHNLNECSPNPCRNGGICLDGDGDFTCECMSGWTGKRCSERATGCYAGQCQNGGTCMPGAPDKALQPHCRCAPGWTGLFCAEAIDQCRGQPCHNGGTCESGAGWFRCVCAQGFSGPDCRINVNECSPQPCQGGATCIDGIGGYSCICPPGRHGLRCEILLSDPKSACQNASNTISPYTALNRSQNWLDIALTGRTEDDENCNACVCENGTSRCTNLWCGLPNCYKVDPLSKSSNLSGVCKQHEVCVPALSETCLSSPCNVRGDCRALEPSRRVAPPRLPAKSSCWPNQAVVNENCARLTILLALERVGKGASVEGLCSLVRVLLAAQLIKKPASTFGQDPGMLMVLCDLKTGTNDTVELTVSSSKLNDPQLPVAVGLLGELLSSRQLNGIQRRKELELQHAKLAALTSIVEVKLETARVADGSGHSLLIGVLCGVFIVLVGFSVFISLYWKQRLAYRTSSGMNLTPSLDALRHEEEKSNNLQNEENLRRYTNPLKGSTSSLRAATGMELSLNPAPELAASAASSSALHRSQPLFPPCDFERELDSSTGLKQAHKRSSQILLHKTQNSDMRKNTVGSLDSPRKDFGKRSINCKSMPPSSGDEGSDVLATTVMV
	binds	wild type Drosophila Serrate (Ser), UAS-Ser transgene (ligand, also called wild type Ser) GNFELEILEISNTNSHLLNGYCCGMPAELRATKTIGCSPCTTAFRLCLKEYQTTEQGASISTGCSFGNATTKILGGSSFVLSDPGVGAIVLPFTFRWTKSFTLILQALDMYNTSYPDAERLIEETSYSGVILPSPEWKTLDHIGRNARITYRVRVQCAVTYYNTTCTTFCRPRDDQFGHYACGSEGQKLCLNGWQGVNCEEAICKAGCDPVHGKCDRPGECECRPGWRGPLCNECMVYPGCKHGSCNGSAWKCVCDTNWGGILCDQDLNFCGTHEPCKHGGTCENTAPDKYRCTCAEGLSGEQCEIVEHPCATRPCRNGGTCTLKTSNRTQAQVYRTSHGRSNMGRPVRRSSSMRSLDHLRPEGQALNGSSSSGLVSLGSLQLQQQLAPDFTCDCAAGWTGPTCEINIDECAGGPCEHGGTCIDLIGGFRCECPPEWHGDVCQVDVNECEAPHSAGIAANALLTTTATAIIGSNLSSTALLAALTSAVASTSLAIGPCINAKECRNQPGSFACICKEGWGGVTCAENLDDCVGQCRNGATCIDLVNDYRCACASGFTGRDCETDIDECATSPCRNGGECVDMVGKFNCICPLGYSGSLCEEAKENCTPSPCLEGHCLNTPEGYYCHCPPDRAGKHCEQLRPLCSQPPCNEGCFANVSLATSATTTTTTTTTATTTRKMAKPSGLPCSGHGSCEMSDVGTFCKCHVGHTGTFCEHNLNECSPNPCRNGGICLDGDGDFTCECMSGWTGKRCSERATGCYAGQCQNGGTCMPGAPDKALQPHCRCAPGWTGLFCAEAIDQCRGQPCHNGGTCESGAGWFRCVCAQGFSGPDCRINVNECSPQPCQGGATCIDGIGGYSCICPPGRHGLRCEILLSDPKSACQNASNTISPYTALNRSQNWLDIALTGRTEDDENCNACVCENGTSRCTNLWCGLPNCYKVDPLSKSSNLSGVCKQHEVCVPALSETCLSSPCNVRGDCRALEPSRRVAPPRLPAKSSCWPNQAVVNENCARLTILLALERVGKGASVEGLCSLVRVLLAAQLIKKPASTFGQDPGMLMVLCDLKTGTNDTVELTVSSSKLNDPQLPVAVGLLGELLSSRQLNGIQRRKELELQHAKLAALTSIVEVKLETARVADGSGHSLLIGVLCGVFIVLVGFSVFISLYWKQRLAYRTSSGMNLTPSLDALRHEEEKSNNLQNEENLRRYTNPLKGSTSSLRAATGMELSLNPAPELAASAASSSALHRSQPLFPPCDFERELDSSTGLKQAHKRSSQILLHKTQNSDMRKNTVGSLDSPRKDFGKRSINCKSMPPSSGDEGSDVLATTVMV
